Substitutions are numbered along the chain they refer to.
Experiments:
[1] = target: T1, recombinant human TrkA protein (human, UniProt P04629-2 34-407, limits assumed); test: NGF-blocking ELISA on coated human TrkA, 100 nM btNGF; mAb 0.16 nM
Description: (§1) Each row of a 96-well high-binding clear-bottom microtiter plate (Microlon, #655061) was coated overnight at 4° C. with 100 μL/well of recombinant human TrkA protein, diluted to 2 μg/mL in phosphate buffered saline, pH 7.2 (PBS). The next day, the coating solution was removed, and the plate was blocked with 150 μL of Casein-PBS (Thermo Scientific, #37528) for 1 hour at 25° C. with gentle shaking. The plate was then washed three times with PBS supplemented with 0.05% Tween20 (PBST). A two-fold dilution series of exemplified antibodies, along with IgG4 and IgG1 isotype control antibodies, was generated starting at 20 nM in Casein-PBS. 100 μL of the each dilution series sample was added to a well for 30 min at 37° C. with gentle shaking. The plate was then washed three times with PBST. […] The plate was then washed three times with PBST. A 1:3500 dilution of a 1 mg/mL stock solution of streptavidin-HRP (Thermo Scientific, #21130) in Casein-PBS was prepared and […] was added to each well for 20 min at 37° C. with gentle shaking. The plate was washed three times with PBST. […] The reaction was stopped by addition of 100 μL of 1M H₃PO₄ to each well. The absorbance at 450 nm (Abs450) was measured using a SpectraMax 340PC plate reader (Molecular Devices).

[2] = target: T1, recombinant human TrkA protein; test: NGF-blocking ELISA on coated human TrkA, 100 nM btNGF; mAb 0.63 nM
Description: as §1

[3] = target: T1, recombinant human TrkA protein; test: NGF-blocking ELISA on coated human TrkA, 100 nM btNGF; mAb 0.31 (printed pM, two-fold series gives nM)
Description: as §1

[4] = target: T2, Mouse TrkA Extracellular Domain (33-417 with 396-401 deletion) (mouse, UniProt Q3UFB7 34-417); test: SPR, mAb captured on Protein A chip, 37 C
T2 construct: SPR analyte
T2 sequence (Q3UFB7 other isoform, or with tags, fused parts or gaps limits assumed): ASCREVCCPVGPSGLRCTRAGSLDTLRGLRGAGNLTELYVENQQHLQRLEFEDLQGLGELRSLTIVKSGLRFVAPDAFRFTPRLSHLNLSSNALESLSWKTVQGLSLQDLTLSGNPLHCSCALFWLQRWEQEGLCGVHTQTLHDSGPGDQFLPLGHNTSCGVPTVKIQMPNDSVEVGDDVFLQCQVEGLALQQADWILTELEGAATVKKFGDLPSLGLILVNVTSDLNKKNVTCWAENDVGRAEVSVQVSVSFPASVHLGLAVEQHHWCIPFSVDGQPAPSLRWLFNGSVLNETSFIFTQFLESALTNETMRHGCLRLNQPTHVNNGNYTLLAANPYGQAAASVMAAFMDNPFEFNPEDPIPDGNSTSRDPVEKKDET
Description: (§2) The binding kinetics and affinity of exemplified antibodies to human, cynomolgus monkey, rat, mouse, and rabbit TrkA are determined as described below using a surface plasmon resonance assay on a BIACORE™ 8K instrument (GE Healthcare). Two different isoforms of human TrkA (isoform 1 and isoform 2) are evaluated along with human TrkB and human TrkC. […] All FC2 on all eight channels are set to capture approximately 89 response units (RU) of antibody at a flow rate of 10 μL/min. The antibody sample is prepared at 1 μg/mL by dilution into the running buffer. […] Before the analysis cycle, the chip is regenerated with 3 injections of glycine (pH ˜1.5) at 100 μL/min for a contact time of 15 seconds on FC1 and FC2 in order to clean the surface of the chip.

[5] = target: T3, Cynomolgus monkey TrkA Extracellular Domain (59-434) (cynomolgus monkey, UniProt P04629 35-414 (human entry)); test: SPR, mAb captured on Protein A chip, 37 C
T3 construct: SPR analyte
T3 chain: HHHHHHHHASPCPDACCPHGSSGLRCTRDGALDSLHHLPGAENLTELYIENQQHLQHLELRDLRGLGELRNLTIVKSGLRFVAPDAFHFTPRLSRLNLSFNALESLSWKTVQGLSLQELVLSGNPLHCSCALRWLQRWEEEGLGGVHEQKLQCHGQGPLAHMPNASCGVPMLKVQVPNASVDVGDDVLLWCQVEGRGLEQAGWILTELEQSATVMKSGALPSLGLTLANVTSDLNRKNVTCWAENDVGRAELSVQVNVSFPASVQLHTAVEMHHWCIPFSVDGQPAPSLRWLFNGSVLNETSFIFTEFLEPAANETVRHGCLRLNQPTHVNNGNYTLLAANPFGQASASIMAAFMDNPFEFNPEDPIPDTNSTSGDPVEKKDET
Description: as §2

[6] = target: T4, Human TrkA Extracellular Domain Isoform 1 (33-414) (human, UniProt P04629 33-414); test: SPR, mAb captured on Protein A chip, 37 C
T4 construct: SPR analyte; also called Human TrkA Isoform 1
T4 sequence (P04629 other isoform, or with tags, fused parts or gaps): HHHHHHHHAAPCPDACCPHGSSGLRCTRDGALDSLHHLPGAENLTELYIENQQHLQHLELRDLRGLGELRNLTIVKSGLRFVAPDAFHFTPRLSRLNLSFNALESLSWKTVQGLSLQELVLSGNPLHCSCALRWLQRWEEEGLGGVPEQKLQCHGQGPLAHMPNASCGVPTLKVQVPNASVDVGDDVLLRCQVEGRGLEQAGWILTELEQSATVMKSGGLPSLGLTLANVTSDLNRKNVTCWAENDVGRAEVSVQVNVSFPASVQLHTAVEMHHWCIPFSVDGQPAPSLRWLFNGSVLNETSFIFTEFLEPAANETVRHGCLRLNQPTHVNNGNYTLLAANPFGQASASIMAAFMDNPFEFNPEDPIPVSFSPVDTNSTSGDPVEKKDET
Description: as §2

[7] = target: T1, recombinant human TrkA protein; test: NGF-blocking ELISA on coated human TrkA, 100 nM btNGF; mAb 0.02 nM
Description: as §1

[8] = target: T1, recombinant human TrkA protein; test: NGF-blocking ELISA on coated human TrkA, 100 nM btNGF; mAb 0.08 nM
Description: as §1

[9] = target: T1, recombinant human TrkA protein; test: NGF-blocking ELISA on coated human TrkA, 100 nM btNGF; mAb 2.5 nM
Description: as §1

[10] = target: T1, recombinant human TrkA protein; test: NGF-blocking ELISA on coated human TrkA, 100 nM btNGF; mAb 5 nM
Description: as §1

[11] = target: T1, recombinant human TrkA protein; test: NGF-blocking ELISA on coated human TrkA, 100 nM btNGF; mAb 10 nM
Description: as §1

[12] = target: TrkA on rat NEUROSCREEN-1 cells (pheochromocytoma PC12 subclone) (rat, UniProt P35739 33-799); test: cell-based or functional assay
Sequence of TrkA on rat NEUROSCREEN-1 cells (pheochromocytoma PC12 subclone) (P35739 33-799): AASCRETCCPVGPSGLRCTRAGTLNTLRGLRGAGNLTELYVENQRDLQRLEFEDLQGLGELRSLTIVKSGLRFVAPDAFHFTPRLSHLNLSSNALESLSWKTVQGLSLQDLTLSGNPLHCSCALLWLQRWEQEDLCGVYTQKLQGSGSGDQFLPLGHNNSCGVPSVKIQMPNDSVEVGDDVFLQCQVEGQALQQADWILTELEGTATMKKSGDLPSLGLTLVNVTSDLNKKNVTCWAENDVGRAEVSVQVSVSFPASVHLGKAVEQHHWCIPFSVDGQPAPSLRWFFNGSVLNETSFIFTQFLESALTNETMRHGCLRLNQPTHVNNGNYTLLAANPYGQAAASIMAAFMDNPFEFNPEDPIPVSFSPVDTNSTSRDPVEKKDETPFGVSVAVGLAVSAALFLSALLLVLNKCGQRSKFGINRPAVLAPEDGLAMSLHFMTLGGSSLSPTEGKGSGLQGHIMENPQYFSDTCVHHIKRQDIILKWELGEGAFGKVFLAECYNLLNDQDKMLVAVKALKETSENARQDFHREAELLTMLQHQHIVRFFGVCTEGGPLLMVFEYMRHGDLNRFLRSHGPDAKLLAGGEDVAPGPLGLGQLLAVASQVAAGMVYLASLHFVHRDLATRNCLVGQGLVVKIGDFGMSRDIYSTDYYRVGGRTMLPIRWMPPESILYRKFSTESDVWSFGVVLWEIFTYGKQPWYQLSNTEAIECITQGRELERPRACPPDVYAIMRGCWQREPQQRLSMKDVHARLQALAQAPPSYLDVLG

T1 sequence (P04629 other isoform, or with tags, fused parts or gaps limits assumed): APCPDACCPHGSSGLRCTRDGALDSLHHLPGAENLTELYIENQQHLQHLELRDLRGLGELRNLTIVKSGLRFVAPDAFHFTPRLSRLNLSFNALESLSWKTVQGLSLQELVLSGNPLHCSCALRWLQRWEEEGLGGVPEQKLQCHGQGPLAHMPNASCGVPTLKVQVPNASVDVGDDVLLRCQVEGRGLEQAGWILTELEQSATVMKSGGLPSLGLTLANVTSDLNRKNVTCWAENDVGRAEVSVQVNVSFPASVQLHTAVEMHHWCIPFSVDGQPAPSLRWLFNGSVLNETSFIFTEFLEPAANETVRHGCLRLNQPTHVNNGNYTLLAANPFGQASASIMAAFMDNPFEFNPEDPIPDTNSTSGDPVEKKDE

B1: mAb A (antibody, human IgG4 S228P, kappa, F234A L235A, V domains shown)
VH: EVQLVESGGGLVKPGGSLRLSCAASGFTFSGVSINWVRQAPGKGLEWVSSETTSSGTIYYADSVKGRFTISRDNAKNSLYLQMNSLRAEDTAVYYCARSYYYGMDVWGQGTTVTVSS
VL: DIVMTQTPLSSPVTLGQPASISCRSSQSLVHRNGNTYLSWLQQRPGQPPRLLIYKISNRFSGVPDRFSGSGAGTDFTLKISRVEAEDVGVYYCMQARQFPLTFGGGTKVEIKR
notes: Human IgG4PAA/Kappa
- Absorbance 450 nm [1]: 0.87
- Absorbance 450 nm [2]: 0.38
- Absorbance 450 nm [3]: 0.73
- Kd [4]: 6.1 nM
- koff [4]: 0.00069 s⁻¹
- kon [4]: 110000 M⁻¹ s⁻¹
- Kd [5]: 3.6 nM
- koff [5]: 0.00069 s⁻¹
- kon [5]: 190000 M⁻¹ s⁻¹
- Kd [6]: 3.9 nM
- koff [6]: 0.00069 s⁻¹
- kon [6]: 180000 M⁻¹ s⁻¹
- Absorbance 450 nm [7]: 1.11
- Absorbance 450 nm [8]: 1.03
- Absorbance 450 nm [9]: 0.21
- Absorbance 450 nm [10]: 0.2
- Absorbance 450 nm [11]: 0.2
- % Max Stimulation of neurite outgrowth [12]: 7%
- IC50, inhibition of NGF-induced neurite outgrowth [12]: 0.1 nM

B2: mAb B (antibody, human IgG4 S228P, kappa, F234A L235A)
heavy: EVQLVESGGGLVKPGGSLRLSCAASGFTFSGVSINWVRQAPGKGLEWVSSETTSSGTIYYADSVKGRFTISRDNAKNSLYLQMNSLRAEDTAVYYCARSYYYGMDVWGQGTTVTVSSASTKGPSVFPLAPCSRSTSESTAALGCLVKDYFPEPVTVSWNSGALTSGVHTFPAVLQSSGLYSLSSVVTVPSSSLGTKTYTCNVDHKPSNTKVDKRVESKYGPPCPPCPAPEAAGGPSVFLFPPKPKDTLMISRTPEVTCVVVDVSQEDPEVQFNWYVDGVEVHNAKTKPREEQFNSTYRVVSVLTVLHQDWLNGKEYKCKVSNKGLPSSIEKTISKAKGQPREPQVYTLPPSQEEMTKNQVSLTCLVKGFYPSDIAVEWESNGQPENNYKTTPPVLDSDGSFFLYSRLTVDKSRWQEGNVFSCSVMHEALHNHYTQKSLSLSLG
light: DIVMTQTPLSSPVTLGQPASISCRSSQSLVHRAGNTYLSWLQQRPGQPPRLLIYKISNRFSGVPDRFSGSGAGTDFTLKISRVEAEDVGVYYCMQARQFPLTFGGGTKVEIKRTVAAPSVFIFPPSDEQLKSGTASVVCLLNNFYPREAKVQWKVDNALQSGNSQESVTEQDSKDSTYSLSSTLTLSKADYEKHKVYACEVTHQGLSSPVTKSFNRGEC
notes: Human IgG4PAA/Kappa
- Absorbance 450 nm [1]: 0.7
- Absorbance 450 nm [2]: 0.25
- Absorbance 450 nm [3]: 0.55
- Kd [4]: 10.5 nM
- koff [4]: 0.0012 s⁻¹
- kon [4]: 120000 M⁻¹ s⁻¹
- Kd [5]: 6.9 nM
- koff [5]: 0.0013 s⁻¹
- kon [5]: 190000 M⁻¹ s⁻¹
- Kd [6]: 6.7 nM
- koff [6]: 0.0013 s⁻¹
- kon [6]: 190000 M⁻¹ s⁻¹
- Absorbance 450 nm [7]: 0.97
- Absorbance 450 nm [8]: 0.75
- Absorbance 450 nm [9]: 0.16
- Absorbance 450 nm [10]: 0.15
- Absorbance 450 nm [11]: 0.14
- % Max Stimulation of neurite outgrowth [12]: 10%
- IC50, inhibition of NGF-induced neurite outgrowth [12]: 0.07 nM

B3: mAb C (antibody, human IgG4 S228P, kappa, F234A L235A)
heavy: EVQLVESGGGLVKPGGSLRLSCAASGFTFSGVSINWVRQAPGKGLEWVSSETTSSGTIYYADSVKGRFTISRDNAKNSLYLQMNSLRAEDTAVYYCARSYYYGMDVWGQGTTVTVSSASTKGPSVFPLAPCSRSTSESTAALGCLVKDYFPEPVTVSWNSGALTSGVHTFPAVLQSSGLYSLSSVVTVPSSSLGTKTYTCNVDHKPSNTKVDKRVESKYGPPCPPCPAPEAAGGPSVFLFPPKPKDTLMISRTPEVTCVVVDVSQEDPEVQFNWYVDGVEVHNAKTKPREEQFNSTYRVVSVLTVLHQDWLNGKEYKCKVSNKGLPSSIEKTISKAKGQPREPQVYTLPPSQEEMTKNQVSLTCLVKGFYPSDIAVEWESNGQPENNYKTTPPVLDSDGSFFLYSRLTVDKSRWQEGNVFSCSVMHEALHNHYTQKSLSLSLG
light: B2 light with A33Q
notes: Human IgG4PAA/Kappa
- Absorbance 450 nm [1]: 0.77
- Absorbance 450 nm [2]: 0.3
- Absorbance 450 nm [3]: 0.56
- Kd [4]: 10.2 nM
- koff [4]: 0.0012 s⁻¹
- kon [4]: 120000 M⁻¹ s⁻¹
- Kd [5]: 6.6 nM
- koff [5]: 0.0013 s⁻¹
- kon [5]: 200000 M⁻¹ s⁻¹
- Kd [6]: 6.7 nM
- koff [6]: 0.0013 s⁻¹
- kon [6]: 200000 M⁻¹ s⁻¹
- Absorbance 450 nm [7]: 0.97
- Absorbance 450 nm [8]: 0.92
- Absorbance 450 nm [9]: 0.15
- Absorbance 450 nm [10]: 0.16
- Absorbance 450 nm [11]: 0.15
- % Max Stimulation of neurite outgrowth [12]: 7%
- IC50, inhibition of NGF-induced neurite outgrowth [12]: 0.06 nM
